Entries after “also recorded” stand apart in the source; their conditions may differ. Read-outs that look alike come from different tables or passages of the source. Peptide text beside a SMILES is read from it.
What was measured:
[1] = biological target: CheZ peptide (Escherichia coli) (UniProt P0A9H9); experiment: fluorescence; settings: cited from earlier work
[2] = biological target: FliM peptide (Escherichia coli) (UniProt P06974); settings: cited from earlier work
Phosphono-CheY [3] = biological target: Phosphono-CheY (Escherichia coli, UniProt P0AE67, D57C); type: binding, E. coli; settings: phosphono-CheY versus CheY~P
T87I Phosphono-CheY = T87I Phosphono-CheY (Escherichia coli, UniProt P0AE67, D57C/T87I); type: binding, E. coli; settings: ~2 μM protein, 100 mM HEPES, 10 mM MgCl2, 25 °C; no change in fluorescence intensity up to 500 μM peptide; uncertainty in intensity about 4 % due to noise
Sequence of T87I Phosphono-CheY (P0AE67 2-129 D57C/T87I limits assumed): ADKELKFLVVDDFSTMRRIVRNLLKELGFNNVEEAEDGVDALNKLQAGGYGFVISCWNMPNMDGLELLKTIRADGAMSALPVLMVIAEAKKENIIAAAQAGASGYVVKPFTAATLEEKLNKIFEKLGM

[4] = biological target: T87I/Y106W Phosphono-CheY (Escherichia coli, UniProt P0AE67, D57C/T87I/Y106W); type: binding, E. coli; settings: ~2 μM protein, 100 mM HEPES, 10 mM MgCl2, 25 °C; no change in fluorescence intensity up to 500 μM peptide; uncertainty in intensity about 4 % due to noise
Sequence of T87I/Y106W Phosphono-CheY (P0AE67 2-129 D57C/T87I/Y106W limits assumed): as the sequence (P0AE67 2-129 D57C/T87I limits assumed) above, with Y105W counted along it

[5] = biological target: FliM peptide (Escherichia coli) (UniProt P06974); settings: cited from earlier work; remark: listed apart in the source
Phosphono-CheY [6] = biological target: T1, Phosphono-CheY (Escherichia coli, UniProt P0AE67 1-129, D57C, phosphonomethyl group on Cys57 (Pcy57)); experiment: ITC
T1 sequence (looked up): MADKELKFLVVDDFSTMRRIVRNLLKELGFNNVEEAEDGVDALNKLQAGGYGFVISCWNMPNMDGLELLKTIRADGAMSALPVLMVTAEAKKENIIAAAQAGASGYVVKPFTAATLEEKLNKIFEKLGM

CheZ = settings: cited from earlier work
CheY~P = settings: cited from earlier work
flagellar rotation = settings: cited from earlier work
Phosphono-CheY [7] = biological target: T1, Phosphono-CheY; experiment: other fluorescence titration
Phosphono-CheY [8] = biological target: T1, Phosphono-CheY; experiment: ITC; remark: listed apart in the source

Sequence of CheZ peptide (Escherichia coli) (P0A9H9 whole entry): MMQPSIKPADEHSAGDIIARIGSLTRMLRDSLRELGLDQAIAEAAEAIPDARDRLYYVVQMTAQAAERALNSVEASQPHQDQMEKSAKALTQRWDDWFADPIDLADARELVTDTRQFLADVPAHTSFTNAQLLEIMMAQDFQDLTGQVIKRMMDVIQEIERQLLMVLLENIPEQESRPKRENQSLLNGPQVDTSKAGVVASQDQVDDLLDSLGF
Sequence of FliM peptide (Escherichia coli) (P06974 whole entry): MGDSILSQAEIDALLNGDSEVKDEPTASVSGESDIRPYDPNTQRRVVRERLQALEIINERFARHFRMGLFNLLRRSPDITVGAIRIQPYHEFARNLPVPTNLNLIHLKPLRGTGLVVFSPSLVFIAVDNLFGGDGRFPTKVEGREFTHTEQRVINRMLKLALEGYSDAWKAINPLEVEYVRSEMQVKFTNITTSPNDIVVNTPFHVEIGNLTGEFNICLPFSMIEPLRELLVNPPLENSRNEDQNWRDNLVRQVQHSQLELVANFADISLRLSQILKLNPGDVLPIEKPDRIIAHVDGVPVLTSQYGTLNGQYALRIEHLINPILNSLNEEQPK

CheY~P (from UniProt P0AE67)
Kd [1]: 26 µM
Kd [2]: 27 µM

CC[C@H](C)[C@H](NC(=O)[C@H](CCC(=O)O)NC(=O)[C@H](C)NC(=O)[C@H](CCC(N)=O)NC(=O)[C@H](CO)NC(=O)[C@H](CC(C)C)NC(=O)[C@@H](NC(=O)[C@H](CO)NC(=O)[C@H](CC(=O)O)NC(=O)CNC(=O)[C@@H](N)CCSC)[C@@H](C)CC)C(=O)N[C@@H](CC(=O)O)C(=O)N[C@@H](C)C(=O)N[C@@H](CC(C)C)C(=O)N[C@@H](CC(C)C)C(=O)N[C@@H](CC(N)=O)C(=O)O [FliM peptide] (H-MGDSILSQAEIDALLN-OH)
affinity / Kd for phosphono-CheY compared with CheY~P (Phosphono-CheY [3]): CheY~P binds the same FliM peptide with slightly higher affinity; also recorded: almost identical
Kd (fluorescence) (T87I Phosphono-CheY): Not detectable ^b
Kd (fluorescence) [4]: Not detectable ^b

CheY (from UniProt P0AE67)
Kd [1]: 440 µM
Kd [5]: 680 µM

AGVVASQDQVDDLLDSLGF [CheZ peptide]
dH (Phosphono-CheY [6]): -4.8 kcal/mol

B1: CheY~P: phosphorylated form of CheY (protein, UniProt P0AE67 2-129, looked up)
Chemotaxis protein CheY: ADKELKFLVVDDFSTMRRIVRNLLKELGFNNVEEAEDGVDALNKLQAGGYGFVISDWNMPNMDGLELLKTIRADGAMSALPVLMVTAEAKKENIIAAAQAGASGYVVKPFTAATLEEKLNKIFEKLGM
modifications: phosphorylated
in vivo half-life of CheY~P (CheZ; in vivo, autophosphatase plus CheZ): less than a second
half-life of CheY~P (CheY~P; in the absence of CheZ): 15 to 20 s

B2: T87I/Y106W CheY~P: phosphorylated T87I/Y106W CheY (protein, UniProt P0AE67 2-129, looked up, variant T87I Y106W)
Chemotaxis protein CheY: ADKELKFLVVDDFSTMRRIVRNLLKELGFNNVEEAEDGVDALNKLQAGGYGFVISDWNMPNMDGLELLKTIRADGAMSALPVLMVIAEAKKENIIAAAQAGASGWVVKPFTAATLEEKLNKIFEKLGM
modifications: phosphorylated
sensitivity to CheZ (CheZ): resistant to CheZ-promoted phosphatase activity

B3: Y106W CheY: Substitution of Tyr106 in E. coli CheY with tryptophan (protein, UniProt P0AE67 2-129, looked up, variant Y106W)
Chemotaxis protein CheY: ADKELKFLVVDDFSTMRRIVRNLLKELGFNNVEEAEDGVDALNKLQAGGYGFVISDWNMPNMDGLELLKTIRADGAMSALPVLMVTAEAKKENIIAAAQAGASGWVVKPFTAATLEEKLNKIFEKLGM
flagellar rotation / swimming phenotype (flagellar rotation): hyperactive mutant that generates mainly clockwise rotational bias

B4: T87I CheY: E. coli CheY mutant T87I (protein, UniProt P0AE67 2-129, looked up, variant T87I)
Chemotaxis protein CheY: ADKELKFLVVDDFSTMRRIVRNLLKELGFNNVEEAEDGVDALNKLQAGGYGFVISDWNMPNMDGLELLKTIRADGAMSALPVLMVIAEAKKENIIAAAQAGASGYVVKPFTAATLEEKLNKIFEKLGM
sensitivity to CheZ (CheZ): completely resistant to CheZ activity
autodephosphorylation rate (CheY~P): ~ 5 fold lower
generation of clockwise rotation of the flagella (flagellar rotation): cannot generate clockwise rotation of the flagella

B5: T87I CheY~P: phosphorylated T87I CheY (protein, UniProt P0AE67 2-129, looked up, variant T87I)
Chemotaxis protein CheY: ADKELKFLVVDDFSTMRRIVRNLLKELGFNNVEEAEDGVDALNKLQAGGYGFVISDWNMPNMDGLELLKTIRADGAMSALPVLMVIAEAKKENIIAAAQAGASGYVVKPFTAATLEEKLNKIFEKLGM
modifications: phosphorylated
sensitivity to CheZ (CheZ): resistant to CheZ-promoted phosphatase activity

B6: T87C CheY~P: phosphorylated T87C CheY (protein, UniProt P0AE67 2-129, looked up, variant T87C)
Chemotaxis protein CheY: ADKELKFLVVDDFSTMRRIVRNLLKELGFNNVEEAEDGVDALNKLQAGGYGFVISDWNMPNMDGLELLKTIRADGAMSALPVLMVCAEAKKENIIAAAQAGASGYVVKPFTAATLEEKLNKIFEKLGM
modifications: phosphorylated
sensitivity to CheZ-promoted phosphatase activity (CheZ): the same is true of T87C CheY~P

B7: T87I/Y106W CheY: E. coli CheY double mutant T87I/Y106W (protein, UniProt P0AE67 2-129, looked up, variant T87I Y106W)
Chemotaxis protein CheY: ADKELKFLVVDDFSTMRRIVRNLLKELGFNNVEEAEDGVDALNKLQAGGYGFVISDWNMPNMDGLELLKTIRADGAMSALPVLMVIAEAKKENIIAAAQAGASGWVVKPFTAATLEEKLNKIFEKLGM
sensitivity to CheZ (CheZ): completely resistant to CheZ activity
autodephosphorylation rate (CheY~P): ~ 5 fold lower
generation of clockwise rotation of the flagella (flagellar rotation): cannot generate clockwise rotation of the flagella

MGDSILSQAEIDALLN [FliM peptide]
dH (Phosphono-CheY [6]): -2.4 kcal/mol
Kd (Phosphono-CheY [7]): 38 ± 1 µM
Kd (Phosphono-CheY [8]): 21 µM

Source: article PMC2850201 (Archives of biochemistry and biophysics, 2008)
